Changes are numbered by the printed parent chain. Names may count otherwise. “Also recorded” adds a separate entry of the source. No end group written: not given here.
T1: fluorescein-labeled P5 peptide (also: fluorescein label, position not given here)
T1 peptide: CALLLSAPRR

B1: Ssc1 E467A suppressor S201 (E467A, D519E), purified (natural protein, S. cerevisiae, UniProt P0CS90 24-654, looked up)
chain: QSTKVQGSVIGIDLGTTNSAVAIMEGKVPKIIENAEGSRTTPSVVAFTKEGERLVGIPAKRQAVVNPENTLFATKRLIGRRFEDAEVQRDIKQVPYKIVKHSNGDAWVEARGQTYSPAQIGGFVLNKMKETAEAYLGKPVKNAVVTVPAYFNDSQRQATKDAGQIVGLNVLRVVNEPTAAALAYGLEKSDSKVVAVFDLGGGTFDISILDIDNGVFEVKSTNGDTHLGGEDFDIYLLREIVSRFKTETGIDLENDRMAIQRIREAAEKAKIELSSTVSTEINLPFITADASGPKHINMKFSRAQFETLTAPLVKRTVDPVKKALKDAGLSTSDISEVLLVGGMSRMPKVVETVKSLFGKDPSKAVNPDEAVAIGAAVQGAVLSGEVTDVLLLDVTPLSLGIETLGGVFTRLIPRNTTIPTKKSQIFSTAAAGQTSVEIRVFQGARELVRDNKLIGNFTLAGIPPAPKGVPQIEVTFDIDADGIINVSARDKATNKESSITVAGSSGLSENEIEQMVNDAEKFKSQDEARKQAIETANKADQLANDTENSLKEFEGKVDKAEAQKVRDQITSLKELVARVQGGEEVNAEELKTKTEELQTSSMKLFEQLYKNDSNNNNNNNGNNAESGETKQ
B2: S2-V524I: suppressor S2-V524I subcloned into the E467A-D411R backbone (protein)
chain: B1 chain with E496D, V501I
modifications: left off: His6, end not stated, state not stated
B3: S7-N508T: suppressor S7-N508T subcloned into the E467A-D411R backbone (protein)
chain: B1 chain with N485T, E496D
modifications: left off: His6, end not stated, state not stated
B4: S209 (protein)
chain: B1 chain with K467R, E496D
modifications: left off: His6, end not stated, state not stated
B5: D411R (protein)
chain: B1 chain with D388R, A444E, E496D
modifications: left off: His6, end not stated, state not stated
B6: D416R (protein)
chain: B1 chain with D393R, A444E, E496D
modifications: left off: His6, end not stated, state not stated
B7: Q465A (protein)
chain: B1 chain with Q442A, A444E, E496D
modifications: left off: His6, end not stated, state not stated
B8: G466E (protein)
chain: B1 chain with G443E, A444E, E496D
modifications: left off: His6, end not stated, state not stated
B9: E467A-D411R (protein)
chain: B1 chain with D388R, E496D
modifications: left off: His6, end not stated, state not stated
B10: E467A-D416R (protein, UniProt P0CS90 24-654, looked up, variant E467A D416R)
Import motor subunit, …: B1 chain with D393R, E496D
B11: S1-D519E: suppressor S1-D519E subcloned into the E467A-D411R backbone (protein)
chain: B1 chain
modifications: left off: His6, end not stated, state not stated
B12: WT Ssc1: Wild type Ssc1 (His6), yeast mtHsp70 (protein)
chain: B1 chain with A444E, E496D
modifications: left off: His6, end not stated, state not stated
B13: Ssc1 E467A suppressor S203 (E467A, D519Y), purified (natural protein, S. cerevisiae, UniProt P0CS90 24-654, looked up)
chain: B1 chain with E496Y
B14: Ssc1 E467A suppressor S202 (E467A, V524I), purified (natural protein, S. cerevisiae, UniProt P0CS90 24-654, looked up)
chain: B1 chain with E496D, V501I
B15: Ssc1 E467A suppressor S208 (E467A, D519G), purified (natural protein, S. cerevisiae, UniProt P0CS90 24-654, looked up)
chain: B1 chain with E496G
B16: Ssc1 E467A suppressor S207 (E467A, N508T), purified (natural protein, S. cerevisiae, UniProt P0CS90 24-654, looked up)
chain: B1 chain with N485T, E496D
B17: Ssc1 E467A suppressor S209 (E467A, K490R), purified (natural protein, S. cerevisiae, UniProt P0CS90 24-654, looked up)
chain: B1 chain with K467R, E496D
B18: Ssc1 E467A suppressor S204 (E467A, D519N), purified (natural protein, S. cerevisiae, UniProt P0CS90 24-654, looked up)
chain: B1 chain with E496N
B19: Ssc1 E467A suppressor S205 (E467A, N508K), purified (natural protein, S. cerevisiae, UniProt P0CS90 24-654, looked up)
chain: B1 chain with N485K, E496D

How the values were obtained:
[1] = molecular target: T1, fluorescein-labeled P5 peptide; assay: fluorescence polarisation
[2] = system: yeast cells; assay: Growth phenotype; assay type: cell-based, S. cerevisiae; details: minimal medium or 5-FOA medium, serial dilutions
[3] = system: Ssc1; assay: Stimulation of ATPase activity by P5 peptide, Ssc1; assay type: biochemical, S. cerevisiae; details: 100-fold molar excess P5, single-turnover
[4] = system: Ssc1; assay: Single-turnover basal ATPase assay, Ssc1; assay type: biochemical, S. cerevisiae; details: 25°C; for fold increase in basal ATPase activity: buffer A, versus wild type
[5] = system: Ssc1; assay: ATP-induced substrate release by fluorescence anisotropy, Ssc1; assay type: biochemical, S. cerevisiae; details: 2.5 mM ATP, 5 μM Ssc1[F-P5]; for ATP-induced substrate release, in words: 5 min
[6] = system: Ssc1; assay: Tryptophan fluorescence quenching upon ATP binding, Ssc1; assay type: biochemical, S. cerevisiae; details: 2.5 μM protein, 1000-fold excess ATP, wild type set at 100%
[7] = system: Ssc1; assay: Limited proteolytic cleavage by trypsin; assay type: biochemical, S. cerevisiae; details: 1:100 (wt/wt) trypsin, 25°C, SDS-PAGE
[8] = system: Tim44; assay: Coimmunoprecipitation of Ssc1 with Tim44; assay type: binding, S. cerevisiae; details: mitochondrial lysates, anti-Ssc1, presence or absence of 1 mM ATP; Figure 6A

Molecule	substrate release upon ATP binding [1] [%]	growth phenotype, in words [2]	also measured
B1	> 50		
B2		significant growth rescue of the E467A-D411R–associated lethality at different temperatures on 5-FOA medium	
B3		significant growth rescue of the E467A-D411R–associated lethality at different temperatures on 5-FOA medium	
B4			stimulation of ATPase activity by P5, in words [3]: could stimulate ATPase activity similar to wild-type levels; also recorded: augment peptide-mediated ATPase stimulation; basal ATPase activity, in words [4]: able to suppress the elevated basal activity of the mutant
B5		did not result in a growth defect; also recorded: completely viable	ATP-induced substrate release, in words [5]: modest reductions; stimulation of ATPase activity by P5, in words [3]: modest reductions in stimulation of ATPase activity by substrate; tryptophan fluorescence quenching upon ATP binding, in words [6]: modest reductions; fold increase in basal ATPase activity [4]: twofold increase
B6		severe growth defect, as evidenced by its inviability on 5-FOA medium; also recorded: inviable	substrate (peptide) release upon ATP addition ([5]; anisotropy decrease up to 5 min): < 10%; stimulation of ATPase activity by P5, in words [3]: stimulated fivefold less by P5 as compared with the wild-type protein; tryptophan fluorescence quenching upon ATP binding, in words [6]: significantly lowered quenching of tryptophan fluorescence; fold increase in basal ATPase activity [4]: 4.5 fold
B7		viable at 30 °C but displayed temperature sensitivity at 34 and 37 °C	fold increase in basal ATPase activity [4]: 2.25 fold
B8		lethal and unable to grow on 5-FOA medium	fold increase in basal ATPase activity [4]: 11 fold
B9		lethal, as demonstrated by lack of growth on 5-FOA	ATP-induced substrate release, in words [5]: markedly compromised in ATP-dependent conformational changes required for release of bound substrate; stimulation of ATPase activity by P5, in words [3]: severely impaired stimulation by substrate; tryptophan fluorescence quenching upon ATP binding, in words [6]: markedly compromised
B10		semidominant phenotype	
B11		significant growth rescue of the E467A-D411R–associated lethality at different temperatures on 5-FOA medium	
B12			trypsin cleavage pattern, in words [7]: limited proteolysis pattern, leading to formation of stable 30-kDa fragments; interaction with Tim44, in words [8]: robust interaction with Tim44 in the absence of ATP, and this binding was sensitive to the presence of ATP
B13	> 50		
B14	> 50		
B15	> 50		
B16	> 50		
B17	> 50		
B18	> 50		
B19	> 50		
